Assay results from the supplement of paper PMC10567573.

B1: MGC27345 (parent)
chain: KYMPHLCQDSSGEVSCQCQLHPPR
B2: JUNB (parent)
chain: FVKALDDLHKMNHVTPPNVSLGAT

Variants of: B1
Test: protein stability index of a GFP-peptide fusion (GPS, HEK-293T) (PSI 1-6); higher = more stable
Details: c terminus: a fixed tail appended
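Note: lentivirally expressed fusions sorted by FACS into six bins by GFP to DsRed ratio, PSI derived from sequencing read proportions per bin multiplied by bin number.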

Protein stability index of substitutions, site by site:
S10: K 2.02 | P 2.05 | L 1.57 | D 2.94 | V 1.56 | T 1.97 | Q 2.26 | R 1 | F 2.65 | W 1.6 | I 2.63 | A 2.06 | E 2.57 | H 2.91 | G 2.08 | N 2.08 | M 2.39 | Y 4.19 | C 2.73
L20: Y 2.05 | D 2.73 | N 2.56 | F 2.13 | H 3.1 | T 2.12 | K 2.04 | W 1.82 | I 2.79 | S 2.49 | P 3.73 | G 1.85 | E 3.1 | A 2.37 | C 2.44 | Q 2.34 | M 2.73 | V 2.17
S11: D 2.13 | R 1.66 | C 2.5 | A 2.53 | E 2.42 | K 2.28 | I 1.71 | P 1.72 | Y 1.52 | T 2.1 | M 2.12 | L 2.04 | G 3.17 | W 1.28 | H 2.16 | N 2.55 | Q 1.63 | V 1.45 | F 1.58
R24: L 3.85 | G 4.32 | N 4.28 | W 2.89 | D 4.59 | S 4.29 | I 3.75 | M 3.31 | A 3.79 | H 4.04 | Q 4.05 | F 3.39 | K 3.26 | E 4.59 | T 3.99 | Y 3.87 | V 3.23 | C 3.86
P22: G 3.29 | D 4.1 | L 2.73 | R 2.62 | V 2.17 | M 2.51 | N 3.16 | C 2.47 | I 2.03 | S 2.55 | K 2.43 | Q 2.64 | T 2.49 | F 2.41 | Y 2.45 | W 2.05 | E 3.09 | H 3.14 | A 2.66
V14: Y 2.08 | G 3.14 | M 2.23 | H 2.48 | E 3.31 | N 2.46 | A 3.06 | C 2.94 | P 2.45 | L 1.97 | S 2.88 | F 1.94 | K 2.64 | T 2.87 | I 2.48 | Q 2.67 | D 2.25 | R 2.24 | W 2.42
G12: K 1.59 | H 2.69 | F 1.34 | A 2 | T 1.87 | N 1.67 | R 1.69 | Y 1.53 | Q 2.8 | C 2.38 | D 2.52 | M 1.88 | E 2.1 | P 1.96 | I 1.47 | L 2.08
S15: G 2.14 | T 1.41 | K 2.8 | D 3.99 | H 1.64 | F 1.67 | R 1.63 | P 2.67 | Y 2.22 | E 3.32 | W 1.02 | N 2.62 | I 1.63 | L 1.72 | Q 1.96 | C 2.28 | V 2.48
Q17: P 2.21 | T 1.81 | A 1.66 | M 3.13 | D 2.83 | S 1.33 | F 2.21 | Y 1.76 | I 1.76 | G 1.62 | V 2.44 | R 2.35 | H 1.74 | W 2.6 | L 2.17 | N 1.47 | K 3.52 | C 2.32
C16: P 3.31 | Y 3.13 | W 2.38 | N 3.1 | A 3.38 | V 2.85 | E 4.02 | G 4.1 | I 1.93 | D 3.88 | R 3.1 | S 2.03 | H 3.05 | M 2.9 | L 2.94 | Q 3.99 | T 2.96 | K 3.58 | F 2.16
H21: Y 2.06 | C 2.65 | A 3.18 | D 2.6 | F 1.63 | E 3.34 | L 1.51 | I 2.75 | P 3.07 | N 2.31 | R 1.69 | T 3.51 | Q 4.58 | K 2.7 | S 2.86
P23: L 2.38 | S 2.47 | I 2.24 | W 2.34 | C 3.96 | T 2.02 | F 2.32 | E 3.48 | N 2.85 | Y 2.07 | V 2.87 | H 2.66 | D 3.71 | G 3.38 | Q 2.29 | K 2.35 | M 2.2 | A 2.34
E13: W 1.03 | R 2.44 | K 2.21 | V 1.78 | N 1.75 | M 1.89 | P 2.31 | Y 1.54 | L 2.07 | H 2.05 | Q 1.74 | S 2.26 | F 1.71 | T 2.22 | I 1.99 | A 2.3 | D 2.57 | C 2.14
Q19: M 2.13 | T 2.36 | E 3.08 | C 2.07 | D 2.25 | W 2.48 | K 2.07 | P 3.84 | N 2.63 | G 2.81 | Y 2.71 | A 2.45 | S 2.5 | I 2.15 | V 1.96 | F 2.71 | H 1.52 | L 2.12
D9: Y 1.67 | R 1.89 | W 1.52 | H 2.38 | L 2.18 | T 2.14 | S 1.82 | K 2.43 | P 1.42 | M 2.15 | F 2.47 | I 1.51 | G 2.56 | N 1.98
C18: I 3.34 | P 3.55 | F 1.93 | H 2.94 | A 3.46 | S 3.79 | M 2.54 | N 4.32 | Y 1.69 | Q 3.6 | E 3.62 | R 3 | K 3.44 | W 2.44 | T 3.35 | L 3.35 | D 3.65 | V 3.48

Variants of: B2
Test: as above
Details: c terminus: a fixed tail appended

Protein stability index: each site, then its substitutions
V2: R 3.54 | Y 2.51 | F 2.03 | G 3.5 | K 3.07 | E 3.98 | A 2.96 | T 3.33 | Q 3.18 | I 2.22 | H 3.07 | N 4.52 | C 2.96 | M 2.7 | S 4.07 | D 4.22 | L 2.79 | W 2.47 | P 3.05
K3: L 1.66 | C 3.29 | D 2.23 | N 1.86 | P 2.97 | G 2.12 | M 1.74 | H 2.23 | E 2.44 | A 1.69 | F 3.15 | Q 1.94 | I 1.98
F1: P 4.57 | Q 3.52 | G 4.05 | H 4 | A 4.1 | I 2.84 | K 3.92 | C 2.61 | S 4.09 | D 4.6 | E 4.27 | R 4.38 | W 2.51 | V 3.59 | N 3.95 | T 4.37 | M 3.6 | Y 1.54 | L 3.29
